Experimental data from patent US9315825B2, “Pharmacologically induced transgene ablation system” (The Trustees of the University of Pennsylvania, priority 2010, dated 2016).

B1: wild-type FokI: full-length FokI enzyme (SEQ ID NO: 12) expressed from a cotransfected codon optimized plasmid (protein)
chain: MFLSMVSKIRTFGWVQNPGKFENLKRVVQVFDRNSKVHNEVKNIKIPTLVKESKIQKELVAIMNQHDLIYTYKELVGTGTSIRSEAPCDAIIQATIADQGNKKGYIDNWSSDGFLRWAHALGFIEYINKSDSFVITDVGLAYSKSADGSAIEKEILIEAISSYPPAIRILTLLEDGQHLTKFDLGKNLGFSGESGFTSLPEGILLDTLANAMPKDKGEIRNNWEGSSDKYARMIGGWLDKLGLVKQGKKEFIIPTLGKPDNKEFISHAFKITGEGLKVLRRAKGSTKFTRVPKRVYWEMLATNLTDKEYVRTRRALILEILIKAGSLKIEQIQDNLKKLGFDEVIETIENDIKGLINTGIFIEIKGRFYQLKDHILQFVIPNRGVGTKQLVKSELEEKKSELRHKLKYVPHEYIELIEIARNPTQDRILEMKVMEFFMKVYGYRGEHLGGSRKPDGAIYTVGSPIDYGVIVDTKAYSGGYNLPIGQADEMQRYVEENQTRNKHINPNEWWKVYPSSVTEFKFLFVSGHFKGNYKAQLTRLNHITNCNGAVLSVEELLIGGEMIKAGTLTLEEVRRKFNNGEINF
B2: NLS-HTH-FokI: HTH-FokI fusion which further has a heterologous NLS at its N-terminus (protein)
chain: MPKKKRKVGRPPRLTKAEWEQAGRLLAQGIPRKQVALIYDVALSTLYKKHPAKRAHIENDDRINGTKQLVKSELEEKKSELRHKLKYVPHEYIELIEIARNPTQDRILEMKVMEFFMKVYGYRGEHLGGSRKPDGAIYTVGSPIDYGVIVDTKAYSGGYNLPIGQADEMQRYVEENQTRNKHINPNEWWKVYPSSVTEFKFLFVSGHFKGNYKAQLTRLNHITNCNGAVLSVEELLIGGEMIKAGTLTLEEVRRKFNNGEINF
modifications: modified enzyme from SV40, Gin and FokI
notes: HTH-FokI fusion which further has a heterologous NLS at its N-terminus
B3: HTH-FokI: HTH from Gin (a serine recombinase), a linker and FokI catalytic domain, SEQ ID NO: 6 (protein)
chain: MGRPPRLTKAEWEQAGRLLAQGIPRKQVALIYDVALSTLYKKHPAKRAHIENDDRINGTKQLVKSELEEKKSELRHKLKYVPHEYIELIEIARNPTQDRILEMKVMEFFMKVYGYRGEHLGGSRKPDGAIYTVGSPIDYGVIVDTKAYSGGYNLPIGQADEMQRYVEENQTRNKHINPNEWWKVYPSSVTEFKFLFVSGHFKGNYKAQLTRLNHITNCNGAVLSVEELLIGGEMIKAGTLTLEEVRRKFNNGEINF
B4: FokI protein: FokI protein delivered (transfected) to the cells (protein, UniProt P14870 2-579, looked up)
Type II restriction enzyme …: VSKIRTFGWVQNPGKFENLKRVVQVFDRNSKVHNEVKNIKIPTLVKESKIQKELVAIMNQHDLIYTYKELVGTGTSIRSEAPCDAIIQATIADQGNKKGYIDNWSSDGFLRWAHALGFIEYINKSDSFVITDVGLAYSKSADGSAIEKEILIEAISSYPPAIRILTLLEDGQHLTKFDLGKNLGFSGESGFTSLPEGILLDTLANAMPKDKGEIRNNWEGSSDKYARMIGGWLDKLGLVKQGKKEFIIPTLGKPDNKEFISHAFKITGEGLKVLRRAKGSTKFTRVPKRVYWEMLATNLTDKEYVRTRRALILEILIKAGSLKIEQIQDNLKKLGFDEVIETIENDIKGLINTGIFIEIKGRFYQLKDHILQFVIPNRGVTKQLVKSELEEKKSELRHKLKYVPHEYIELIEIARNSTQDRILEMKVMEFFMKVYGYRGKHLGGSRKPDGAIYTVGSPIDYGVIVDTKAYSGGYNLPIGQADEMQRYVEENQTRNKHINPNEWWKVYPSSVTEFKFLFVSGHFKGNYKAQLTRLNHITNCNGAVLSVEELLIGGEMIKAGTLTLEEVRRKFNNGEINF
B5: untethered FokI: FokI catalytic domain alone, 198 amino acids (SEQ ID NO: 14), un-tethered to DNA (protein)
chain: MKQLVKSELEEKKSELRHKLKYVPHEYIELIEIARNPTQDRILEMKVMEFFMKVYGYRGEHLGGSRKPDGAIYTVGSPIDYGVIVDTKAYSGGYNLPIGQADEMQRYVEENQTRNKHINPNEWWKVYPSSVTEFKFLFVSGHFKGNYKAQLTRLNHITNCNGAVLSVEELLIGGEMIKAGTLTLEEVRRKFNNGEINF

Test system: pCMV.Luciferase reporter gene expression in HEK293 cells
Test: Ablation of luciferase reporter by FokI ablators co-transfected into HEK293 cells (Dual Luciferase assay)
Assay type: cell-based, human
Details: for ablation of Luc reporter with increasing concentration of ablator expression plasmid: 6.25, 12.5, 25, 50 and 100 ng expression plasmid cotransfected with 50 ng pCMV.Luciferase; for expression of the luciferase reporter gene: FIG. 18A: 50 ng pCMV.Luciferase + 200 ng pCMV.FokI, or + transfected FokI protein
Protocol: Open reading frames encoding for various endonucleases were codon optimized and de novo synthesized by GeneArt. Ablator expression and target plasmids were produced using standard molecular biological cloning techniques. Transfections were performed in HEK293 cells using Lipofectamine™ 2000 transfection reagent (Life Technologies). All transfections were performed using optimal transfection conditions as defined in transfection reagent protocol. Briefly, 200-250 ng plasmid DNA (excluding transfection control plasmid) was complexed with Lipofectamine™ 2000 transfection reagent and added to cells in 96 well plates. DNA quantities were consistent across all conditions by supplementation with an unrelated plasmid containing the same promoter as test plasmids. Transfection complexes were incubated with cells for 4-6 hours as transfection reagent protocol before the addition of FBS supplemented media. Transfected cells were incubated at 37° C. for 24-72 hours. Following incubation, cells were assayed for reporter gene expression using Promega Dual Luciferase detection kit according to the manufacturer's instructions on a BioTek Clarity platereader and renilla luciferase was used to control for transfection efficiency. All samples were performed in quadruplicate and standard errors of the mean were calculated.
The amino acid sequence of the FokI enzyme is provided in SEQ ID NO: 12, wherein amino acids 1 to 387 are the DNA binding domain and amino acids 387 to 584 are the catalytic domain. The codon optimized FokI sequence is provided in SEQ ID NO:1.
In a dose-dependent experiment, the FokI expression vector contained the FokI catalytic domain fused to a zinc finger DNA binding domain (ZFHD). This construct, which is 963 bp, is provided in SEQ ID NO: 21 and is composed of base pairs 1 to 366 bp ZFHD, 367 to 372 bp linker, and 373 to 963 bp FokI catalytic domain. The resulting expression product comprises amino acids 1 to 122 (ZFHD), amino acids 123-124 are a linker and amino acids 125 to 321 are from the FokI catalytic domain. […] No ablation sites were required to be engineered into the transcription unit containing the transgene in this illustration, as luciferase contains multiple native FokI sites.
The plasmid contructs in this example contains either the FokI catalytic domain (198 amino acids (SEQ ID NO: 14), corresponding to amino acids 387 to 584 of the full-length protein) (untethered FokI) or a ZFHD-Fokl catalytic domain of 963 bp as described in Part A above (tethered FokI). Even at the highest concentration, the catalytic domain of FokI which is un-tethered to DNA does have no effect on expression of Luc reporter gene (FIG. 19A).
The HTH-FokI Catalytic domain (SEQ ID NO:5), is composed of 1-171 bp HTH from Gin (a serine recombinase), a linker (bp 172-177), and a FokI catalytic domain (178-768 bp) derived from codon-optimized FokI. The resulting chimeric enzyme (SEQ ID NO: 6) contains aa 1-57 of HTH from Gin, a linker (aa 58-59), and a FokI catalytic domain (amino acids 60-256).

Molecule | ablation of Luc reporter with increasing concentration of ablator expression plasmid | expression of the luciferase reporter gene | further results
ZFHD-FokI: FokI catalytic domain fused to a zinc finger homeodomain DNA binding domain (ZFHD), 963 bp, SEQ ID NO: 21 | dose dependent ablation | – | ablation of Luc reporter with increasing concentration of ablator expression plasmid (listed as ZF-HD-FokI): effectively ablated
B1 | – | effective ablated | –
B2 | – | – | activity of HTH-FokI after adding heterologous NLS at the N-terminus (6.25-100 ng expression plasmid with 50 ng pCMV.Luciferase, separate experiment): further improved
B3 | effectively ablated | – | –
B4 | – | partial ablation | –
B5 | no effect | – | –
